Biological target: T1, Aβ1-28 wild type (human)
T1 construct: amyloid-β (Aβ) residues 1-28, cut from the amyloid β precursor protein (APP); numbers count on: the Aβ peptide (position 2 of Aβ is position 673 of APP); Assembles into fibrils; also called Aβ1-28WT; WT; source: synthetic peptide (Fmoc solid-phase synthesis, purified by reverse-phase HPLC, purity >95%)
Assay: neutron diffraction + other: synchrotron X-ray fibre diffraction; peptides or their mixtures dissolved in ddH2O at 10 mg/mL, dried four days at ambient temperature on quartz in a 7 T static magnetic field, re-humidified against 100% D2O for about 14 days; small- and wide-angle patterns
Settings: both partners purified

B1: Aβ1-28A2V (peptide)
peptide: DVEFRHDSGYEVHHQKLVFFAEDVGSNK
notes: amyloid-β (Aβ) residues 1-28 with the naturally occurring A-to-V substitution at position 2 of Aβ (A673V in APP); numbers count on: the Aβ peptide (position 2 of Aβ is position 673 of APP); also called mutated peptide Aβ1-28A2V; source: synthetic peptide (Fmoc solid-phase synthesis, purified by reverse-phase HPLC, purity >95%)
B1: binds.

From publication PMC5511251, “The A2V mutation as a new tool for hindering Aβ aggregation: A neutron and x-ray diffraction study” (Scientific Reports, 2017)
